Data taken from patent US20230192819A1 (TWIST BIOSCIENCE, published 2023).
Values joined by “and” are separate entries in the source; they are usually repeats but may differ in a detail not shown here. Equal values may be shown once. Read-outs that look alike come from different tables or passages of the source.

Key:
[1] = target: California Variant W152C_L452R_D614G
[2] = target: T1, Acro S1 spike protein (SARS-CoV-2) (SARS-CoV-2, UniProt P0DTC2 16-685)
[3] = target: T2, S1 variant B.1.1.7: UK (Acro) spike protein (SARS-CoV-2, UniProt P0DTC2 16-1213)
[4] = target: Delta variant (Acro) spike protein (SARS-CoV-2, UniProt P0DTC2 16-1213)
[5] = target: T1, Acro S1 spike protein (SARS-CoV-2); experiment: SPR (Carterra LSA); […]; 1:1 model; […]
[6] = target: T2, S1 variant B.1.1.7: UK (Acro) spike …; experiment: SPR (Carterra LSA); […]; 1:1 model; […]
[7] = target: T3, C52Hk S. African variant (Acro) spike protein (SARS-CoV-2, UniProt P0DTC2 16-1213); experiment: SPR (Carterra LSA); […]; 1:1 model; […]
[8] = target: T4, C52Hg Brazilian variant (Acro) spike protein (SARS-CoV-2, UniProt P0DTC2 16-1213); experiment: SPR (Carterra LSA); […]; 1:1 model; […]
[9] = target: T1, Acro S1 spike protein (SARS-CoV-2); experiment: SPR (Carterra LSA); antibody on chip, spike protein as analyte; summary table
[10] = target: T2, S1 variant B.1.1.7: UK (Acro) spike …; experiment: as above
[11] = target: T3, C52Hk S. African variant (Acro) spike …; experiment: as above
[12] = target: T4, C52Hg Brazilian variant (Acro) spike …; experiment: as above
[13] = target: T1, Acro S1 spike protein (SARS-CoV-2); experiment: SPR (Carterra LSA)
[14] = target: T2, S1 variant B.1.1.7: UK (Acro) spike …; experiment: SPR (Carterra LSA)
[15] = target: T3, C52Hk S. African variant (Acro) spike …; experiment: SPR (Carterra LSA)
[16] = target: T4, C52Hg Brazilian variant (Acro) spike …; experiment: SPR (Carterra LSA)
[17] = target: T4, C52Hg Brazilian variant (Acro) spike …

B1: Antibody 1-10 (Fc fusion)
chain: EVQLVESGGGLVQPGSSLRLSCAASGGTFSSIGMGWFRQAPGKEREFVAAISWDGGATAYADSVKGRFTISADNSKNTAYLQMNSLKPEDTAVYYCAKEDVGKPFDWGQGTLVTVSS
For B1, which IC50 [1] is on record?
Its IC50 is 0.13 nM.

What about the Kd [2] of the same binder?
Its Kd is 2.6 nM.

And the koff [2]?
The koff was 0.00053 s⁻¹ and 0.000728 s⁻¹.

And the kon [2]?
The kon was 280000 M⁻¹ s⁻¹.

And the Kd [3]?
Its Kd is 0.33 nM and 0.27 nM.

And the koff [3]?
Its koff is 2.54e-05 s⁻¹ and 2.32e-05 s⁻¹.

What about the kon [3] of the same binder?
The kon was 77000 M⁻¹ s⁻¹ and 86000 M⁻¹ s⁻¹.

And the Kd [4]?
Its Kd is 7.43 nM and 5.43 nM.

And the koff [4]?
Its koff is 0.000706 s⁻¹ and 0.000516 s⁻¹.

And the kon [4]?
The kon was 95000 M⁻¹ s⁻¹.

What about the Kd [5] of the same binder?
The Kd was 1.96 nM.

And the koff [5]?
Its koff is 0.00053 s⁻¹.

What about the kon [5] of the same binder?
Its kon is 270000 M⁻¹ s⁻¹.

What about the Kd [6] of the same binder?
Its Kd is 0.481 nM.

And the koff [6]?
Its koff is 0.00013 s⁻¹.

And the kon [6]?
The kon was 270000 M⁻¹ s⁻¹.

And the Kd [7]?
The Kd was 13.9 nM.

And the koff [7]?
Its koff is 0.00089 s⁻¹.

And the kon [7]?
The kon was 64000 M⁻¹ s⁻¹.

What about the Kd [8] of the same binder?
Its Kd is 127 nM.

What about the koff [8] of the same binder?
The koff was 0.00081 s⁻¹.

What about the kon [8] of the same binder?
The kon was 6400 M⁻¹ s⁻¹.

What about the Kd [9] of the same binder?
Its Kd is 1.95 nM.

What about the Kd [10] of the same binder?
Its Kd is 0.481 nM.

What about the Kd [11] of the same binder?
Its Kd is 13.9 nM.

What about the Kd [12] of the same binder?
Its Kd is 127 nM.

B2: Antibody 1-20 (Fc fusion)
chain: EVQLVESGGGLVQPGGSLRLSCAASGRTFRRYTMGWFRQAPGKEREFVASITSSGVNAYADSVKGRFTISADNSKNTAYLQMNSLKPEDTAVYYCAKEDVGKPFDWGQDTLVTVSS
Which results are given for B2?
binding result [13]: no binding; binding result [14]: no binding; binding result [15]: no binding; binding result [16]: no binding

B3: Antibody 1-8 (Fc fusion)
chain: EVQLVESGGGLVQPGGSLRLSCAASGRTLSRYTMGWFRQAPGKEREFVASITSGGTTNYADSVKGRFTISADNSKNTAYLQMNSLKPEDTAVYYCAKEDVGKPFDWGQGTLVTVSS
Which results are given for B3?
IC50 [1]: 2.72 nM; Kd [2]: 2.22 nM and 4.13 nM; koff [2]: 0.000412 s⁻¹ and 0.000662 s⁻¹; kon [2]: 186000 M⁻¹ s⁻¹ and 160000 M⁻¹ s⁻¹; Kd [3]: 3.2 nM; koff [3]: 0.000572 s⁻¹; kon [3]: 179000 M⁻¹ s⁻¹; Kd [17]: 2.53 nM and 1.9 nM; koff [17]: 0.000158 s⁻¹ and 0.00011 s⁻¹; kon [17]: 62400 M⁻¹ s⁻¹ and 58000 M⁻¹ s⁻¹; Kd [4]: 2.39 nM and 3.18 nM; koff [4]: 0.000409 s⁻¹ and 0.000318 s⁻¹; kon [4]: 171000 M⁻¹ s⁻¹ and 100000 M⁻¹ s⁻¹; Kd [6]: 2.26 nM; koff [6]: 0.0007 s⁻¹; kon [6]: 310000 M⁻¹ s⁻¹; Kd [7]: 1 nM; koff [7]: 0.00057 s⁻¹; kon [7]: 570000 M⁻¹ s⁻¹; Kd [8]: 0.321 nM; koff [8]: 0.00017 s⁻¹; kon [8]: 530000 M⁻¹ s⁻¹; Kd [10]: 2.26 nM; Kd [11]: 1 nM; Kd [12]: 0.321 nM

B4: Antibody 1-15 (Fc fusion)
chain: EVQLVESGGGLVQPGGSLRLSCAASGGIFSDMFMGWFRQAPGKEREFVATIDWSGDTAFYADSVKGRFTISADNSKNTAYLQMNSLKPEDTAVYYCAVDLSGDAVYDWGQGTLVTVSS
Which results are given for B4?
IC50 [1]: 66.7 nM; Kd [2]: 5.43 nM and 10.9 nM; koff [2]: 0.000339 s⁻¹ and 0.000547 s⁻¹; kon [2]: 62400 M⁻¹ s⁻¹ and 50200 M⁻¹ s⁻¹; Kd [3]: 0.708 nM and 0.82 nM; koff [3]: 5.5e-05 s⁻¹; kon [3]: 77700 M⁻¹ s⁻¹; koff [17]: 1e-05 s⁻¹; Kd [5]: 10.4 nM; koff [5]: 0.00094 s⁻¹; kon [5]: 90000 M⁻¹ s⁻¹; Kd [6]: 0.828 nM; koff [6]: 0.00024 s⁻¹; kon [6]: 290000 M⁻¹ s⁻¹; Kd [7]: 1.04 nM; koff [7]: 0.00028 s⁻¹; kon [7]: 270000 M⁻¹ s⁻¹; Kd [8]: 1.04 nM; koff [8]: 0.00028 s⁻¹; kon [8]: 270000 M⁻¹ s⁻¹; Kd [9]: 10.4 nM; Kd [10]: 0.828 nM; Kd [11]: 1.4 nM; Kd [12]: 1.04 nM

B5: Antibody 1-3 (Fc fusion)
chain: EVQLVESGGGLVQPGGSLRLSCAASGTTFRINVMGWFRQAPGKEREFVAGISWTGGSTIYADSVKGRFTISADNSKNTAYLQMNSLKPEDTAVYYCAAFDGYSGSDWGQGTLVTVSS
Does B5 bind [13]?
Result: no binding

Does B5 bind [14]?
Result: no binding

Does B5 bind [15]?
Result: no binding

Does B5 bind [16]?
Result: no binding

B6: Antibody 1-11 (Fc fusion)
chain: EVQLVESGGGLVQPGGSLRLSCAASGFTFDDYVMGWFRQAPGKEREFVAVISWTGESTLYADSVKGRFTISADNSKNTAYLQMNSLKPEDTAVYYCAAFDGYSGSDWGQGTLVTVSS
Which results are given for B6?
Kd [7]: 5 nM; koff [7]: 0.0019 s⁻¹; kon [7]: 380000 M⁻¹ s⁻¹; Kd [8]: 4.67 nM; koff [8]: 0.0014 s⁻¹; kon [8]: 300000 M⁻¹ s⁻¹; Kd [11]: 5 nM; Kd [12]: 4.67 nM

B7: Antibody 1-21 (Fc fusion)
chain: EVQLVESGGGLVQPGGSLRLSCAASGPTFSIYAMGWFRQAPGKERELVAGISWNGGSTNYADSVKGRFTISADNSKNTAYLQMNSLKPEDTAVYYCAAFDGYTGSDWGQGTLVTVSS
Does B7 bind [13]?
Result: no binding

Does B7 bind [14]?
Result: no binding

Does B7 bind [15]?
Result: no binding

Does B7 bind [16]?
Result: no binding

B8: Antibody 1-16 (Fc fusion)
chain: EVQLVESGGGLVQPGGSLRLSCAASGRTYAMGWFRQAPGKERELVAEITAGGSTYYADSVKGRFTISADNSKNTAYLQMNSLKQEDTAVYYCAVDGPFGWGQGTLVTVSS
How did the Kd [6] turn out when B8 was run?
Its Kd is 1.06 nM.

And the koff [6]?
Its koff is 0.00037 s⁻¹.

What about the kon [6] of the same binder?
Its kon is 350000 M⁻¹ s⁻¹.

What about the Kd [8] of the same binder?
Its Kd is 4.79 nM.

What about the koff [8] of the same binder?
Its koff is 0.0034 s⁻¹.

What about the kon [8] of the same binder?
The kon was 710000 M⁻¹ s⁻¹.

What about the Kd [10] of the same binder?
Its Kd is 1.06 nM.

And the Kd [12]?
The Kd was 4.79 nM.

B9: Antibody 1-13 (Fc fusion)
chain: EVQLVESGGGLVQPGGSLRLSCAASGRTTFSSYTMGWFRQAPGKEREFVASITRSGVLNYADSVKGRFTISADNSKNTAYLQMNSLKPEDTAVYYCAKEDVGKPFDWGQGTLVTVSS
What does the source list for B9?
Kd [5]: 18.2 nM; koff [5]: 0.0031 s⁻¹; kon [5]: 170000 M⁻¹ s⁻¹; Kd [6]: 5.18 nM; koff [6]: 0.00088 s⁻¹; kon [6]: 170000 M⁻¹ s⁻¹; Kd [9]: 18.2 nM; Kd [10]: 5.18 nM

B10: Antibody 1-17 (Fc fusion)
chain: EVQLVESGGGLVQPGGSLRLSCAASGRTIVPYTMGWFRQAPGKEREEVAAISTGGGGTYYADSVKGRFTISADNSKNTAYLQMNSLKPEDTAVYYCAVDGPFGWGQGTLVTVSS
What does the source list for B10?
Kd [5]: 5.15 nM; koff [5]: 0.0017 s⁻¹; kon [5]: 330000 M⁻¹ s⁻¹; Kd [9]: 5.15 nM

B11: Antibody 1-2 (Fc fusion)
chain: EVQLVESGGGLVQPGGSLRLSCAASGGSEYSYSTFSSFVMGWFRQAPGKERELVASISWSGGHTFYADSVKGRFTISADNSKNTAYLQMNSLKPEDTAVYYCAAYLRGPYYSSFYDSTKYEWGQGTLVTVSS
Which results are given for B11?
Kd [5]: 2.41 nM; koff [5]: 0.00053 s⁻¹; kon [5]: 220000 M⁻¹ s⁻¹; Kd [9]: 2.41 nM

B12: Antibody 1-6 (Fc fusion)
chain: EVQLVESGGGLVQPGGSLRLSCAASGSISSINVMGWFRQAPGKEREWMGVMAYDGSTYYADSVKGRFTISADNSKNTAYLQMNSLKPEDTAVYYCAAFDGYSGSDWGQGTLVTVSS
Which results are given for B12?
binding result [13]: no binding; binding result [14]: no binding; binding result [15]: no binding; binding result [16]: no binding

B13: Antibody 1-14 (Fc fusion)
chain: EVQLVESGGGLVQPGGSLRLSCAASGFTPDDYAMGWFRQAPGKEREFVAAINWSGVTTYHYYADSVKGRFTISADNSKNTAYLQMNSLKPEDTAVYYCASDESDAANWGQGTLVTVSS
Does B13 bind [13]?
Result: no binding

Does B13 bind [14]?
Result: no binding

Does B13 bind [15]?
Result: no binding

Does B13 bind [16]?
Result: no binding

B14: Antibody 1-19 (Fc fusion)
chain: EVQLVESGGGLVQPGGSLRLSCAASGFTFSDYAMGWFRQAPGKEREVVARIYWSSANTYYADSVKGRFTISADNSKNTAYLQMNSLKPEDTAVYYCATYGYDSGRYYSWGQGTLVTVSS
Does B14 bind [13]?
Result: no binding

Does B14 bind [14]?
Result: no binding

Does B14 bind [15]?
Result: no binding

Does B14 bind [16]?
Result: no binding
